Data: patent publication US7220822 (OHIO STATE UNIVERSITY, dated 2007)

Target: T1, CD80-Ig (extracellular domain of CD80 fused with the constant region of mouse IgG1 heavy chain) (mouse)
T1 construct: extracellular domain; also called B7-1
Experiment: SPR (BIACORE), direct binding to immobilized CD80-Ig, linear regression plot
Method: Binding experiments were performed by surface plasmon resonance (SPR) on an instrument sold under the trademark BIACORE™ from Pharmacia Biosensor (Uppasala, Sweden). All experiments were performed at 37° C. using HBS-EP buffer (25 mM Hepes, pH7.4, […], 3.4 mM EDTA and, 005% surfactant P20) supplied by Pharmacia Biosensor.
CD80-Ig (extracellular domain of CD80 fused with the constant region of mouse IgG1 heavy chain) at 35 µg/ml in 10 mM sodium acetate buffer, pH 4.2, was coupled to a research grade CM 5 sensor chip using a standard amine coupling procedure with the following modifications (38). To reduce the immobilization level of the ligand, the surface was activated for 3 (instead of 7) minutes with N-hydroxysuccinamide and […]. […] Following coupling, noncovalently bound ligand was removed by washing twice with 5 mM NaOH.
Data for both k_a and k_d are quite consistent over the entire range of concentrations used. The difference between experimental and calculated data for both EL CD28 and RI CD28 peptide mimetics estimated by Chi^2 value is low being close to the noise level of the instrument. A linear regression plot of the rate of change in the response against response units was plotted using these values of k_a and k_d for each CD28 peptide analyte.

B1: L-CD28 (free L CD28 peptide mimetic) (peptide)
peptide: H-KIEFMYPPPYLDNERSNGTI-OH
notes: also called Free L peptide
Kd: 2440 nM
